Reference: the supplement of paper PMC10126150
± gives the standard deviation of the averaged measurements.

Test system: ATP
Experiment: switch fluorescence ratio, 500 uM ATP over buffer (Cy3 cluster intensity, sum of 5 cycles each) (fold (ratio)); higher = stronger signal-on switching upon ATP binding; sequences stand for … in TCGTCGGCAGCGTCAGATGTGTATAAGAGACAGTTTTTTTTTTTTTTTTTTTTTTTTT…TC
Conditions: aptamer strand: ATP DNA aptamer (quencher-CACCTGGGGGAGTATTGCGGAGGAAGG + anchor), 100 nM annealed; ATP concentration: 500 uM
Procedure, shortened: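 The quencher-labelled ATP aptamer, at 100 nM, was annealed to Cy3-labelled switching-strand clusters on a modified Illumina MiSeq flow-cell. The clusters were imaged in selection buffer, then after 15 min with 500 uM ATP at 22 °C, and this buffer/ATP cycle ran five times with NaOH stripping and re-annealing between runs. Per-cluster fluorescence ratios, summed target-cycle over summed buffer-cycle Cy3 intensity, were averaged per switch-domain sequence. Clusters outside 100-1000 RFU were excluded.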
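Note: ATP exposure 15 min at 22 °C before imaging.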

ATGCAGGAGT
switch fluorescence ratio: 0.98647 ± 0.00087

AATTATGTCA
switch fluorescence ratio: 1.01 ± 0.022

GTTTTTCCTG
switch fluorescence ratio: 0.981 ± 0.055

GGTTATAGTC
switch fluorescence ratio: 0.966 ± 0.02

ACGGGGGTTC
switch fluorescence ratio: 1.01 ± 0.012

CAAGCGGATT
switch fluorescence ratio: 1 ± 0.033

GTTGTCGTTT
switch fluorescence ratio: 0.99104 ± 0.00015

CGTGTATATG
switch fluorescence ratio: 1.01 ± 0.029

ATGTTTGGGC
switch fluorescence ratio: 0.9597 ± 0.0085

TCGGGGGTAG
switch fluorescence ratio: 0.985 ± 0.014

TTTGCCCCCT
switch fluorescence ratio: 1.04 ± 0.051

ACTGGACGAT
switch fluorescence ratio: 1.19 ± 0.015

GTGTTATCGC
switch fluorescence ratio: 1.011 ± 0.0015

AAAAAATTAT
switch fluorescence ratio: 1.03 ± 0.087

CGATGCGGGG
switch fluorescence ratio: 1.011 ± 0.0095

GCGGTATATG
switch fluorescence ratio: 1.01 ± 0.027

TAAGATCTGG
switch fluorescence ratio: 1.006 ± 0.0021

TATTGGGAAT
switch fluorescence ratio: 0.985 ± 0.01

CTAGGGGGTA
switch fluorescence ratio: 0.971 ± 0.035

TTGCGTGCTT
switch fluorescence ratio: 1.01 ± 0.027

CAGGCCGGAG
switch fluorescence ratio: 1.01 ± 0.022

GTATCTAGTT
switch fluorescence ratio: 0.996 ± 0.024

GCCTTCAATA
switch fluorescence ratio: 1.0946 ± 0.00028

TAGGAGTTGT
switch fluorescence ratio: 0.995 ± 0.016

AATAACGGTG
switch fluorescence ratio: 1.07 ± 0.019

TGGGAGGTAC
switch fluorescence ratio: 1.24 ± 0.3

TTCAATCTGT
switch fluorescence ratio: 0.968 ± 0.064

GGGTAGTCTG
switch fluorescence ratio: 1 ± 0.049

TGGCGAATTA
switch fluorescence ratio: 0.978 ± 0.026

GGAGAAGAGA
switch fluorescence ratio: 0.9875 ± 0.004

GAATTCAAGG
switch fluorescence ratio: 1.01 ± 0.082

TAAGGTAATA
switch fluorescence ratio: 1.03 ± 0.051

GGTTTTGCAG
switch fluorescence ratio: 0.9946 ± 0.0069

AGACGCGTAG
switch fluorescence ratio: 0.999 ± 0.046

AGGCAGGTTG
switch fluorescence ratio: 0.985 ± 0.019

ACGGGGTCAC
switch fluorescence ratio: 1.026 ± 0.0017

GCGGCTGTTA
switch fluorescence ratio: 1.01 ± 0.013

TTTTATCAAT
switch fluorescence ratio: 1.003 ± 0.0076

ACGCGACATT
switch fluorescence ratio: 1.12 ± 0.039

CATGATATGG
switch fluorescence ratio: 0.969 ± 0.02

GTGGGGGG
switch fluorescence ratio: 0.999 ± 0.029

AATGCGAGAA
switch fluorescence ratio: 0.973 ± 0.024

AGTTGAGGAA
switch fluorescence ratio: 1 ± 0.026

AAGGGCTTCT
switch fluorescence ratio: 1.01 ± 0.018

TATTAATAGA
switch fluorescence ratio: 0.999 ± 0.061

GGCAGAATAA
switch fluorescence ratio: 1.05 ± 0.13

TCTTCCTAGA
switch fluorescence ratio: 1.031 ± 0.01

TTGCGGCTTG
switch fluorescence ratio: 0.9923 ± 0.0088

TAGGGCGCAG
switch fluorescence ratio: 0.959 ± 0.028

CGGGCCGCGG
switch fluorescence ratio: 1.06 ± 0.083

GTGGGTAATT
switch fluorescence ratio: 0.995 ± 0.033

AAGGTCAAGC
switch fluorescence ratio: 1 ± 0.063

TTTTAGATAG
switch fluorescence ratio: 1.06 ± 0.11

CCGAGGGCAG
switch fluorescence ratio: 2.75 ± 0.36

TTTATATAGA
switch fluorescence ratio: 0.996 ± 0.033

CTTGTGAGGA
switch fluorescence ratio: 1 ± 0.036

CGAGGATTTG
switch fluorescence ratio: 0.994 ± 0.018

GTTTATGTGG
switch fluorescence ratio: 0.981 ± 0.025

TTGAGGACAG
switch fluorescence ratio: 1.02 ± 0.025

CATTAATTTT
switch fluorescence ratio: 0.968 ± 0.044

ATAATTTGGT
switch fluorescence ratio: 0.982 ± 0.038

TAGGTAGTTT
switch fluorescence ratio: 0.969 ± 0.032

CTCGCTGCGT
switch fluorescence ratio: 1.024 ± 0.0082

GGGTCAACGA
switch fluorescence ratio: 1.03 ± 0.051

AATTTTTTTG
switch fluorescence ratio: 1.04 ± 0.051

AACCAAGGTT
switch fluorescence ratio: 1.05 ± 0.082

ATAGCATTAT
switch fluorescence ratio: 1.14 ± 0.026

CGGAGTTATC
switch fluorescence ratio: 1.35 ± 0.2

TTGGGCACTG
switch fluorescence ratio: 0.974 ± 0.013

TGGCGCACGG
switch fluorescence ratio: 0.953 ± 0.017

TTAAATTTTT
switch fluorescence ratio: 1.01 ± 0.041

TTCCGACTTA
switch fluorescence ratio: 1.14 ± 0.19

AATGTAAACG
switch fluorescence ratio: 0.978 ± 0.027

TGGGTAGAAC
switch fluorescence ratio: 1.12 ± 0.13

TCAGTCATTA
switch fluorescence ratio: 0.989 ± 0.016

TTTATGTTGG
switch fluorescence ratio: 0.979 ± 0.036

GAGCTATTCT
switch fluorescence ratio: 1.08 ± 0.0029

AAGTTTGTGT
switch fluorescence ratio: 1.02 ± 0.0045

ATACCTGAGT
switch fluorescence ratio: 1.21 ± 0.034

TTCCCTTTGG
switch fluorescence ratio: 1.01 ± 0.041

TTTGGCTGTT
switch fluorescence ratio: 0.998 ± 0.029

GCTAGGCGGA
switch fluorescence ratio: 1.0381 ± 0.0006

TCCGGTTGTC
switch fluorescence ratio: 1.11 ± 0.036

ATTTGTTATT
switch fluorescence ratio: 1.01 ± 0.024

TTTATGAAAT
switch fluorescence ratio: 1.12 ± 0.19

CCCATTTTGT
switch fluorescence ratio: 0.991 ± 0.02

AATGTTATAT
switch fluorescence ratio: 1.01 ± 0.014

TTACCATTCG
switch fluorescence ratio: 1.02 ± 0.019

GTTGTTATAG
switch fluorescence ratio: 1.02 ± 0.039

CGATCTTGTG
switch fluorescence ratio: 0.988 ± 0.01

CGTGAATTTT
switch fluorescence ratio: 1 ± 0.037

ATTTGCCTGT
switch fluorescence ratio: 0.982 ± 0.033

TTAGACCGAA
switch fluorescence ratio: 1.031 ± 0.0088

TTCTAGGGGG
switch fluorescence ratio: 1.02 ± 0.056

ATGCATGGTA
switch fluorescence ratio: 1.03 ± 0.009

ACTCTTGCGG
switch fluorescence ratio: 1.01 ± 0.016

GGGTGAATGT
switch fluorescence ratio: 0.993 ± 0.041

GAGGGTTTGA
switch fluorescence ratio: 1.0098 ± 0.00022

CTATAAGTCT
switch fluorescence ratio: 1.022 ± 0.0033

AGTGTTGGG
switch fluorescence ratio: 0.9768 ± 0.0046

CACTTGGGCG
switch fluorescence ratio: 1.033 ± 0.0077

CAAGATGCTC
switch fluorescence ratio: 1.43 ± 0.03

GCTAACATTT
switch fluorescence ratio: 0.974 ± 0.029

GAAAAAGTCG
switch fluorescence ratio: 0.997 ± 0.042

AAATACGTAT
switch fluorescence ratio: 1.04 ± 0.046

TCGGACAGGC
switch fluorescence ratio: 1.03 ± 0.035

TTTTGCCGTT
switch fluorescence ratio: 1.01 ± 0.019

TGGCCGGGAT
switch fluorescence ratio: 0.996 ± 0.021

TGTGGGGGGT
switch fluorescence ratio: 0.992 ± 0.027

TATTGACATT
switch fluorescence ratio: 1.016 ± 0.0071

TCCTGGAGGA
switch fluorescence ratio: 0.989 ± 0.05

ATGGTTTTAA
switch fluorescence ratio: 1.03 ± 0.02

GGGGGTTTTT
switch fluorescence ratio: 0.997 ± 0.033

AGGACTTGAA
switch fluorescence ratio: 1.02 ± 0.035

CGTAGGTGTG
switch fluorescence ratio: 1.02 ± 0.021

AAGAGGGTAA
switch fluorescence ratio: 0.963 ± 0.012

ATTTTTGATC
switch fluorescence ratio: 1.02 ± 0.032

TAGCATGTTC
switch fluorescence ratio: 1.09 ± 0.049

GCAACGGCGG
switch fluorescence ratio: 1.01 ± 0.054

TTTGTTTTAC
switch fluorescence ratio: 1.18 ± 0.21

CGAGGGTGTA
switch fluorescence ratio: 0.999 ± 0.0014

TGAGGTAGGA
switch fluorescence ratio: 0.9781 ± 0.0014

TCTGGGGGAC
switch fluorescence ratio: 1.05 ± 0.015

TTTCGGAGTT
switch fluorescence ratio: 1.05 ± 0.071

ATGAAATAGG
switch fluorescence ratio: 0.98 ± 0.031

GCGGAAGACG
switch fluorescence ratio: 1.35 ± 0.6

CGGAGGGGCT
switch fluorescence ratio: 1.03 ± 0.015

GCTTGTACAT
switch fluorescence ratio: 0.982 ± 0.018

GGCAGTCCGG
switch fluorescence ratio: 0.9876 ± 0.0024

TGGGGATTAG
switch fluorescence ratio: 1.01 ± 0.033

AATATCCGTA
switch fluorescence ratio: 1.01 ± 0.033

GCATGAGCTG
switch fluorescence ratio: 0.981 ± 0.014

GGGACGATTG
switch fluorescence ratio: 0.985 ± 0.059

AAGGTTAGAC
switch fluorescence ratio: 1.03 ± 0.012

AAAATGGTAT
switch fluorescence ratio: 1.01 ± 0.038

AGGCATTGGC
switch fluorescence ratio: 0.997 ± 0.048

TTTGATCTGC
switch fluorescence ratio: 0.961 ± 0.031

GGCGCCGTTT
switch fluorescence ratio: 0.986 ± 0.023

TGAGCTAGGT
switch fluorescence ratio: 1 ± 0.033

TATCAGTAGG
switch fluorescence ratio: 0.981 ± 0.021

ATCTGGACTA
switch fluorescence ratio: 0.984 ± 0.033

TAGAATGTGG
switch fluorescence ratio: 0.994 ± 0.042

ATGCTCGCGG
switch fluorescence ratio: 0.983 ± 0.038

TCATTTCAGC
switch fluorescence ratio: 1.03 ± 0.011

GCGGCTTGTG
switch fluorescence ratio: 0.9988 ± 0.0089

ACGGTTCGGA
switch fluorescence ratio: 1.02 ± 0.019

CTAGCATCCG
switch fluorescence ratio: 1.03 ± 0.016

GCGGATGTCT
switch fluorescence ratio: 1 ± 0.017

TATATGCTGT
switch fluorescence ratio: 0.98 ± 0.011

GTGTACTTAC
switch fluorescence ratio: 1.2 ± 0.022

GGGTTTCGTT
switch fluorescence ratio: 0.99 ± 0.05

CTTCGTATCG
switch fluorescence ratio: 1.04 ± 0.059

TTACGTAATA
switch fluorescence ratio: 1.34 ± 0.023

CAATTTACGG
switch fluorescence ratio: 1.1 ± 0.036

CCTTCGAGG
switch fluorescence ratio: 1.15 ± 0.2

CGTTACGAGC
switch fluorescence ratio: 1.04 ± 0.059

TTCCTAGTCT
switch fluorescence ratio: 1.27 ± 0.19

TGGCTATTGT
switch fluorescence ratio: 0.9824 ± 0.0044

TCCAGGAGGG
switch fluorescence ratio: 1.025 ± 0.0075

AGTAACAGTA
switch fluorescence ratio: 1 ± 0.037

TTATTGATTT
switch fluorescence ratio: 1.017 ± 0.0021

CGGGGCACCG
switch fluorescence ratio: 0.9868 ± 0.0032

ATCGAAGGGA
switch fluorescence ratio: 0.985 ± 0.041

AGGGTAAACT
switch fluorescence ratio: 1.27 ± 0.37

TCTGAGTTCA
switch fluorescence ratio: 0.987 ± 0.019

CATCGCAAAG
switch fluorescence ratio: 4.33 ± 0.46

TTTGATGCAT
switch fluorescence ratio: 1.03 ± 0.026

CGGGGGGGTT
switch fluorescence ratio: 1.02 ± 0.034

TCGCCAATTG
switch fluorescence ratio: 1.0649 ± 0.00052

TCGCGGGAAG
switch fluorescence ratio: 1.015 ± 0.0054

CAATTGGTAC
switch fluorescence ratio: 1.05 ± 0.013

ATCAATCCTT
switch fluorescence ratio: 1.03 ± 0.029

GGGGATTTTT
switch fluorescence ratio: 1 ± 0.035

ACTTATTCGG
switch fluorescence ratio: 1.02 ± 0.019

TAGTAACTAC
switch fluorescence ratio: 1.05 ± 0.011

TTTAGCATGT
switch fluorescence ratio: 1.04 ± 0.073

GAGGTGCCTA
switch fluorescence ratio: 0.991 ± 0.02

GAATTATTGG
switch fluorescence ratio: 0.975 ± 0.022

GATTTCAGCT
switch fluorescence ratio: 0.997 ± 0.019

CAAAAAAGGG
switch fluorescence ratio: 1.02 ± 0.021

CACGGCCGAA
switch fluorescence ratio: 0.973 ± 0.013

TTAACGGCGC
switch fluorescence ratio: 1.04 ± 0.081

TGTTCCGGGA
switch fluorescence ratio: 1.04 ± 0.023

CGGCTGGGGA
switch fluorescence ratio: 1.03 ± 0.017

GGGAGCCTAC
switch fluorescence ratio: 1.038 ± 0.0081

ATATTCTGAA
switch fluorescence ratio: 0.976 ± 0.017

TGGGATGTGG
switch fluorescence ratio: 0.986 ± 0.019

ATGGGCAGAT
switch fluorescence ratio: 0.994 ± 0.071

AGGCCTTGTT
switch fluorescence ratio: 0.974 ± 0.019

GCAGTTAAGT
switch fluorescence ratio: 1 ± 0.037

TGGTGTTTTG
switch fluorescence ratio: 0.999 ± 0.031

ACGTACTTGA
switch fluorescence ratio: 1.52 ± 0.085

ATTATAACTC
switch fluorescence ratio: 0.957 ± 0.036

GCGGGCAATG
switch fluorescence ratio: 1.052 ± 0.0089

ATTATATCGG
switch fluorescence ratio: 0.9981 ± 0.0031

TGTGGGCGGA
switch fluorescence ratio: 1.001 ± 0.0079

GTTCGGCAGA
switch fluorescence ratio: 1 ± 0.032

GGGCTAGTCA
switch fluorescence ratio: 0.965 ± 0.019

TTTCTCGGCA
switch fluorescence ratio: 1.44 ± 0.42

ATTTAGTGAC
switch fluorescence ratio: 1.02 ± 0.051
